From paper PMC9738585, “Unveiling the Metal-Dependent Aggregation Properties of the C-terminal Region of Amyloidogenic Intrinsically Disordered Protein Isoforms DPF3b and DPF3a” (International Journal of Molecular Sciences, 2022)

Biological target: the molecule itself
Assay: thioflavin T fluorescence; purified C-TER (~10 µM) incubated in TBS (50 mM Tris-HCl pH 8.0, 150 mM NaCl) at ~20 °C for 96 to 144 h; 10 µM ThT, excitation 440 nm, emission 485 nm; self-assembly into amyloid fibrils; also at ~5 µM with 100 µM Cu2+, Mg2+, Ni2+ or Zn2+

B1: C-terminal region of DPF3b (C-TERb) (domain or fragment, human, UniProt Q92784-1 200-378, looked up)
chain: CDICGKRYKNRPGLSYHYAHTHLASEEGDEAQDQETRSPPNHRNENHRPQKGPDGTVIPNNYCDFCLGGSNMNKKSGRPEELVSCADCGRSGHPTCLQFTLNMTEAVKTYKWQCIECKSCILCGTSENDDQLLFCDDCDRGYHMYCLNPPVAEPPEGSWSCHLCWELLKEKASAFGCQA
notes: Double-PHD fingers 3 isoform DPF3b (378 amino acids), human, Uniprot Q92784-1, residues 200-378 (C2H2, PHD-1 and PHD-2 zinc fingers); also called DPF3b C-terminus; source: E. coli BL21 Rosetta (DE3), purified (GSTrap FF, on-column TEV cleavage); not shown: GST, N-terminal, cleaved
binding result: binds

B2: C-terminal region of DPF3a (C-TERa) (domain or fragment, human, UniProt Q92784-2 200-357, looked up)
chain: CDICGKRYKNRPGLSYHYAHTHLASEEGDEAQDQETRSPPNHRNENHRPQKGPDGTVIPNNYCDFCLGGSNMNKKSGRPEELVSCADCGRSAHLGGEGRKEKEAAAAARTTEDLFGSTSESDTSTFHGFDEDDLEEPRSCRGRRSGRGSPTADKKGSC
notes: Double-PHD fingers 3 isoform DPF3a (357 amino acids), human, Uniprot Q92784-2, residues 200-357 (C2H2, truncated PHD-1/2 and disordered C-terminal domain); also called DPF3a C-terminus; source: E. coli BL21 Rosetta (DE3), purified (GSTrap FF, on-column TEV cleavage); not shown: GST, N-terminal, cleaved
binding result: binds
